Laboratory results: patent US20070122380A1 (UNIVERSITY OF CONNECTICUT, published 2007)

Molecular target: T1, c-Met (mouse, UniProt P16056 25-1379)
T1 construct: whole, on cells; also called HGFR; HGF receptor
Test: confocal microscopy of cells stained with anti-IL-7R-alpha and anti-c-Met; co-localisation on scIL-7/HGF-beta-stimulated cells and on pre-pro-B cells of normal BM
Description: Consistent with these blocking experiments, approximately 60% of the scIL-7/HGF-beta culture-generated CLPs and pre-pro-B cells expressed both c-Met and the IL-7R, whereas more than 80% at the rIL-7 culture-generated pro-B cells expressed the IL-7R only (data not shown). […] However, as noted previously for native IL-7/HGF-beta, scIL-7/HGF-beta was able to “prime” pre-pro-B/pro-B cells to respond to rIL-7 (FIG. 32D), presumably by up-regulating the IL-7R-alpha chain. […] Direct evidence that both the IL-7R (alpha and gamma-c chains) and c-Met are major components of the receptor complex for IL-7/HGF-beta was provided on Western blots after purification of receptor proteins from culture-generated CLPs/pre-pro-B cells on a scIL-7/HGF-beta affinity gel (FIG. 34).

binding result: binds
B1: IL-7R (alpha and gamma-c chains) (receptor, mouse)
chain 1: ESGNAQDGDLEDADADDHSFWCHSQLEVDGSQHLLTCAFNDSDINTANLEFQICGALLRVKCLTLNKLQDIYFIKTSEFLLIGSSNICVKLGQKNLTCKNMAINTIVKAEAPSDLKVVYRKEANDFLVTFNAPHLKKKYLKKVKHDVAYRPARGESNWTHVSLFHTRTTIPQRKLRPKAMYEIKVRSIPHNDYFKGFWSEWSPSSTFETPEPKNQGGWDPVLPSVTILSLFSVFLLVILAHVLWKKRIKPVVWPSLPDHKKTLEQLCKKPKTSLNVSFNPESFLDCQIHEVKGVEARDEVESFLPNDLPAQPEELETQGHRAAVHSANRSPETSVSPPETVRRESPLRCLARNLSTCNAPPLLSSRSPDYRDGDRNRPPVYQDLLPNSGNTNVPVPVPQPLPFQSGILIPVSQRQPISTSSVLNQEEAYVTMSSFYQNK
chain 2: WSSKVLMSSANEDIKADLILTSTAPEHLSAPTLPLPEVQCFVFNIEYMNCTWNSSSEPQATNLTLHYRYKVSDNNTFQECSHYLFSKEITSGCQIQKEDIQLYQTFVVQLQDPQKPQRRAVQKLNLQNLVIPRAPENLTLSNLSESQLELRWKSRHIKERCLQYLVQYRSNRDRSWTELIVNHEPRFSLPSVDELKRYTFRVRSRYNPICGSSQQWSKWSQPVHWGSHTVEENPSLFALEAVLIPVGTMGLIITLIFVYCWLERMPPIPPIKNLEDLVTEYQGNFSAWSGVSKGLTESLQPDYSERFCHVSEIPPKGGALGEGPGGSPCSLHSPYWPPPCYSLKPEA
notes: whole, on cells; also called IL-7 receptor
